Tests used:
Settings in all cases: remark: other sources report otherwise
[1] = molecular target: T1, S. cerevisiae Vps4p (wild type) (S. cerevisiae), P52917; assay: AUC
T1 chain: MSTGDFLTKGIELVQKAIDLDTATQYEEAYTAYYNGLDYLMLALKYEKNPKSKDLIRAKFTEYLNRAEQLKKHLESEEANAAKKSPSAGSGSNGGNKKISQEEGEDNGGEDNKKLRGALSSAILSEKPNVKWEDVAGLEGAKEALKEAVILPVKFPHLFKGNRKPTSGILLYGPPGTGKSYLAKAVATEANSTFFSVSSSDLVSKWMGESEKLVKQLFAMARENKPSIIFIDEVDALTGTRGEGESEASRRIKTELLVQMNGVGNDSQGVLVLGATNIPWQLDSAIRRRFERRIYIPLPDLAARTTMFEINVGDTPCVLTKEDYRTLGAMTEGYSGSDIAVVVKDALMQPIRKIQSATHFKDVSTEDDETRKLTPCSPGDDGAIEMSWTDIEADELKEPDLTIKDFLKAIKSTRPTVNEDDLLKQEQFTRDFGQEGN

[2] = molecular target: T1, S. cerevisiae Vps4p (wild type) (S. …); assay: SEC
[3] = molecular target: T1, S. cerevisiae Vps4p (wild type) (S. …); assay: SEC
[4] = molecular target: T1, S. cerevisiae Vps4p (wild type) (S. …); assay: AUC
[5] = molecular target: T1, S. cerevisiae Vps4p (wild type) (S. …); assay: SEC
[6] = molecular target: T1, S. cerevisiae Vps4p (wild type) (S. …); assay: SEC

Measured: stoichiometry N

B1: S. cerevisiae Vps4p (wild type), P52917 1-437 (enzyme)
chain: T1 chain
6: all assays above

Reference: publication PMC3919030
